“Also recorded” adds a separate entry of the source.
Columns and labels:
[1] = system: B16-F10 melanoma cell line; assay: PRR tolerance: IFN-β production by pretreated B16-F10 cells after secondary treatment; type: cell-based, mouse; conditions: pretreatment at sublethal dose overnight, then pIC/DF complex 0.6 μg/ml; FIG. 8
Experimental: (§1) In addition to prior activation of MDA5, prior activation of TLR4, RIG-I, and STING induced self- and cross-tolerance of same and different PRRs.
(§2) In particular, mouse pancreatic cancer cell line PANC-02 and melanoma cell line B16-F10 were pretreated with dH2O, MDA5 agonist (pIC/DF complex), or TLR4 agonist (HMGB1) in the presence of dimethyl sulfoxide (DMSO) (vehicle control), CH223191 (AHR inhibitor), 1-MT (IDO inhibitor), or L-Kyn (AHR activator). After overnight incubation, the cells were replenished with fresh culture media and treated with pIC/DF complex (0.6 μg/ml). One day after second treatment, IFN-β production was measured using ELISA. (n=3).

Mouse BM-DCs = assay: PRR tolerance: IFN-β production by pretreated BM-DCs after secondary treatment; type: cell-based; conditions: pretreatment overnight, then cytoplasmic PRR agonists; FIG. 9A
Experimental: as §1
Mouse BM-DCs were treated with pIC/DF complex (cytoplasmic MDA5), ICR4/DF complex (cytoplasmic RIG-I), 2′3′-cGAMP (cytoplasmic STING), or transfection agent DF alone (FIG. 9A). Mouse macrophage cells were treated with dH2O (control), LPS (surface TLR4), or HMGB1 (surface TLR4), followed by treatment with DMSO (control) or mixture of CH223191 (AHR inhibitor) and 1-MT (IDO inhibitor) (FIG. 9B). After overnight incubation, the cells were replenished with fresh culture media and treated with indicated cytoplasmic PRR agonists. Levels of IFN-β production were measured using ELISA. □ P<0.05.

[2] = system: B16-F10 melanoma-bearing mice; assay: Anticancer response (survival) after single or multiple intratumoral pIC/jet-PEI injections; type: in vivo, mouse; conditions: pIC/jet-PEI complex 25 μg intratumorally once or thrice
[3] = system: PANC-02 mouse pancreatic cancer cell line; assay: PRR tolerance: IFN-β production by pretreated PANC-02 cells after secondary treatment; type: cell-based; conditions: pretreatment at sublethal dose overnight, then pIC/DF complex 0.6 μg/ml; FIG. 8
Experimental: as §1, §2

[4] = system: bone marrow-derived dendritic cells (BM-DCs); assay: IFN-β production (ELISA) by BM-DCs after single or repeated pIC/jet-PEI transfection; type: cell-based, mouse; conditions: pIC 0.6 μg/ml with jet-PEI, transfected once or twice, one day after each transfection
Experimental: (§3) B16-F0 mouse melanoma cells or bone marrow-derived dendritic cells (BM-DCs) were transfected once (x1) or twice (x2) with a complex of polyI:C (pIC) (0.6 μg/ml) and transfection agent jet-PEI. IFN-β production by the cells one day after each transfection was determined using ELISA.

[5] = system: B16-F0 mouse melanoma cells; assay: IFN-β production (ELISA) by B16-F0 cells; type: cell-based; conditions: for IFN-β production after first and second transfection: 12.5 nM, DharmaFECT, one day after first and second transfection, ELISA
Experimental: (§4) B16-F0 and B16-F10 mouse melanoma cells lines are originated from the same parental cell line but they have different metastatic ability. B16-F0 cell line has no or marginal metastatic ability but B16-F10 cell line has potent metastatic ability. B16-F0 and B16-F10 cells (1×10^4) were treated with RIG-I agonist ICR4-liposome complex (0.6 μg/ml). After overnight incubation, cytotoxicity and IFN-β production by the cells were measured using MTT assay and ELISA, respectively. […] Tumor suppressor proteins, such as programmed cell death 4 (PDCD4) and phosphatase and tensin homolog (PTEN), and pre-miR-21 levels in B16-F0 and B16-F10 cells were measured using real-time qPCR. […] It was hypothisized that miR-21 would interfere with antitumor effects of RIG-I agonists in B16-F10 melanoma cells.
B16-F0 mouse melanoma cells were transfected with ICR4, RigantmiR-21, mutant RigantmiR-21, or anti-miR-21 at 12.5 nM using DharmaFECT (DF). After overnight incubation, the cells were replenished with fresh culture media, followed by another transfection with the same dose of RNAs. One day after the first and second transfection, IFN-β production by these cells were determined using ELSIA.
as §3

[6] = system: B16-F10 mouse melanoma cells; assay: IFN-β production (ELISA) by B16-F10 cells; type: cell-based; conditions: transfected once or twice, 0.6 μg/ml, DharmaFECT, ELISA
Experimental: as §4
(§5) To improve therapeutic effects of RIG-I agonists in B16-F10 cells, we designed and generated a novel RIG-I-activating RNA molecule (named RigantmiR-21) that is composed of a RIG-I-activating RNA structure (ICR4: 5′ppp-containg double stem-loop RNA) and a complementary sequence to mature miR-21. B16-F10 melanoma cells were transfected once or twice with RigantmiR-21, mutant RigantmiR-21, anti-miR-21, or ICR4 (0.6 μg/ml) using liposomal transfection agent DharmaFECT (DF). The expression of miR-21 target genes was determined using qPCR. IFN-β production was determined using ELISA. […] Anti-miR-21, ICR4, and RigantmiR-21 RNAs were complexed with in vivo transfection agent jet-PEI. Jet-PEI alone or RNA-jet-PEI complexes (25 μg) were injected thrice intratumorally into B16-F10 melanoma-bearing immunocompetent mice. (n=6).
Additionally, conjugation of anti-miR-21 improved the ability of other types of RIG-I agonists, such as ICR2 and ICR2AS^4 (sequences shown in FIG. 6A) to induce IFN-β production by cancer cells.

Mouse macrophage cells = assay: IFN-β production by macrophages re-treated with PRR agonists with or without 1-MT and CH223191; type: cell-based; conditions: re-treatment with the same agonist in presence of mixture of 1-MT and CH223191; FIG. 10
Experimental: Mouse macrophage cells were treated with MDA5 agonists (pIC-HMW and pIC-LMW), RIG-I agonists (ICR4 and RigantmiR-21), and STING agonists (2′3′-cGAMP and c-di-GMP). After overnight incubation, the cells were replenished with fresh culture media and treated with the same agonists in the presence or absence of a mixture of 1-MT and CH223191. (n=3).

[7] = system: B16-F0 mouse melanoma cells; assay: Cytotoxicity (MTT assay) in B16-F0 cells; type: cell-based; conditions: two transfections at various concentrations, DharmaFECT, MTT three days after first transfection
Experimental: as §4
B16-F0 mouse melanoma cells were transfected with ICR4, RigantmiR-21, mutant RigantmiR-21, or anti-miR-21 at various concentrations using DharmaFECT (DF). After overnight incubation, the cells were replenished with fresh culture media, followed by another transfection with the same dose of RNAs. Three days after the first transfection, cytotoxicity levels were measured using MTT assay.

[8] = system: 4T1 mouse breast cancer cells, B16-F10 mouse melanoma cells, 403688 mouse sarcoma cells, and WM266.4 human melanoma cells; assay: IFN-β production (ELISA) by different cancer cells after first and second transfection with RIG-I agonists; type: cell-based; conditions: DharmaFECT, one day after first and second transfection; FIG. 11
Experimental: 4T1 mouse breast cancer cells, B16-F10 mouse melanoma cells, 403688 mouse sarcoma cells, and WM266.4 human melanoma cells were transfected with indicated RIG-I agonists using liposomal transfection agent DharmaFECT (DF). After overnight incubation, the cells was replenished with fresh culture media, followed by another transfection with the same RIG-I agonists. One day after first and second transfection IFN-β production by these cells were determined using ELSIA.

B16-F10 melanoma = assay: Survival of B16-F10 melanoma-bearing immunocompetent mice after intratumoral RNA-jet-PEI injections; type: in vivo, mouse; conditions: RNA-jet-PEI complexes 25 μg injected thrice intratumorally
Experimental: as §5

[9] = system: PANC-02 (mouse pancreatic adenocarcinoma); assay: IFN-β production and cell death in PANC-02 cells; type: cell-based; conditions: 0.6 μg/ml, DharmaFECT
Experimental: (§6) The antitumor effects of RigantmiR-21 are not limited to melanoma cells. KPC-4839 (mouse pancreatic ductal adenocarcinoma), PANC-02 (mouse pancreatic adenocarcinoma) and mouse sarcoma cell line cells were transfected with indicated ICR4, RigantmiR-21, mutant RigantmiR-21, or anti-miR-21 (0.6 μg/ml) using DharmaFECT (DF). After overnight incubation, IFN-β production by these cells was determined using ELSIA. (n=3). As shown in FIGS. 4A-4C, RigantmiR-21 treatments induced cell death and IFN-β production by mouse pancreatic, adenocarcinoma, and sarcoma cells that are also resistant to RIG-I agonist ICR4.

[10] = system: mouse sarcoma cell line cells; assay: IFN-β production and cell death in mouse sarcoma cell line; type: cell-based; conditions: 0.6 μg/ml, DharmaFECT
Experimental: as §6

[11] = system: KPC-4839 (mouse pancreatic ductal adenocarcinoma); assay: IFN-β production and cell death in KPC-4839 cells; type: cell-based; conditions: 0.6 μg/ml, DharmaFECT
Experimental: as §6

[12] = system: mouse pancreatic, adenocarcinoma, and sarcoma cells; assay: Antitumor activities in mouse pancreatic cancer and sarcoma cells (overall statements); type: cell-based
Experimental: as §6

402230 sarcoma = assay: Survival of 402230 sarcoma-bearing immunocompetent mice; type: in vivo, mouse; conditions: RigantmiR-21 1 mg/kg with jetPEI intratumorally once daily for three days, anti-PD-1 intraperitoneally twice at 7-day interval
Experimental: Murine sarcoma 402230 cell line was treated single with RigantmiR-21 ([…]) in complex with liposome. IFN-β production 24 h after treatment (FIG. 12A) and cytotoxicity 72 h after treatment (FIG. 12B) were measured using ELISA and MTT assay, respectively. N=3. 402230 sarcoma-bearing immunocompetent mice were injected intratumorally once daily for three days with RigantmiR-21 (1 mg/kg) in complex with in vivo transfection agent jetPEI, N=5. (FIG. 12C). Sarcoma-bearing mice were also injected intraperitoneally twice at 7-day interval with anti-PD-1. jetPEI alone and jetPEI with isotype control antibody were used as control.

miR-21 = assay: Expression of premiR-21 and miR-21 target genes (qPCR) in B16-F10 melanoma cells; type: cell-based, mouse; conditions: 0.6 μg/ml, DharmaFECT
Experimental: as §5

For “polyinosinic-polycytidylic acid [polyI:C]”, the “IFN-β production after secondary treatment, cells pretreated with the substance versus control” value [1] was “significantly decreased”, the “IFN-β production after secondary treatment, cells pretreated with the substance versus control” value (Mouse BM-DCs) was “significantly decreased” and the “anticancer responses (survival), multiple treatments compared to single treatment” value [2] was “did not significantly enhance”. The “IFN-β production after secondary treatment, cells pretreated with the substance versus control” value [3] was “significantly decreased”, the “IFN-β production after retreatment” value [4] was “reduced” and the “IFN-β production after retreatment” value ([5]; pIC 0.6 μg/ml with jet-PEI, transfected once or twice, one day after each transfection) was “reduced”.

B1: RigantmiR-21: nuclease-resistant RNA composed of RIG-I-activating structure ICR4 and a complementary sequence to mature miR-21; SEQ ID NO: 2 (nucleic acid)
chain: GGAUGCGGUACCUGACAGCAUCUUGAAAUAAGGACUGAUGCUCAACAUCAGUCUGAUAAGCUA
modifications: nuclease-resistant RNA, modifications not given here
In the case of B1, the “IFN-β production compared to ICR4 and mutant RigantmiR-21” value [6] is reported as “significantly increased”, the “IFN-β production with IDO inhibitor and AHR inhibitor co-treatment compared to PRR agonist alone” value (Mouse macrophage cells) is reported as “enhanced” and the “cytotoxic effects after repeated treatments” value [7] is reported as “gradually augmented; also recorded: significantly increased”. The “IFN-β production by different cancer cells” value [8] was “differentially induce”, the “survival compared to repeated injections with ICR4 or anti-miR-21” value (B16-F10 melanoma) was “significantly improved the survival” and the cell death [9] was “induced”. For the same molecule, the IFN-β production ([9]; overnight, ELISA) was “induced”, the cell death [10] was “induced” and the IFN-β production ([10]; overnight, ELISA) was “induced”. The cell death [11] was “induced”, the IFN-β production ([11]; overnight, ELISA) was “induced” and the “antitumor activities relative to MDA5 agonist polyI:C” value ([12]; FIGS. 4A-4C) was “comparable”. The “IFN-β production by mouse pancreatic cancer cells and sarcoma” value ([12]; figure legend FIGS. 4A-4C) was “improves”, the “survival, RigantmiR-21 and anti-PD-1 antibody compared to RigantmiR-21 alone” value (402230 sarcoma) was “significantly improved survival” and the “survival, RigantmiR-21 and anti-PD-1 antibody compared to RigantmiR-21 alone” value (402230 sarcoma; listed as RignatmiR-21) was “synergizes”. For the same molecule, the “expression of premiR-21” value (miR-21) was “inhibited”, the “miR-21 target gene (PTEN) expression” value (miR-21) was “upregulated” and the “IFN-β production after first and second transfection” value [5] was “incremental; also recorded: significantly increased”. For the same molecule, the “IFN-β production after first and second transfection” value ([5]; listed as RignatmiR-21) was “gradually increase”.

Source: patent publication US20220168331A1, “PRR-Activating and MicroRNA-Inhibiting Molecules and Methods of Using Same” (Duke University, priority 2019, published 2022)
